Where no end group is shown, it is not given here. [ ]: non-standard residue; d: D form. pS = N[C@@H](COP(=O)(O)O)C(=O)O
T1: EGFR-pY992 phosphopeptide, DADE(p)YLIPQQGFFSSPSTSC (phosphotyrosine at (p)Y (residue 5 of the printed peptide; EGFR Tyr992))
T1 construct: also called EGFR-pTyr992
T1 peptide: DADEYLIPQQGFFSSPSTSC

B1: βTRCP1 (EST clone IMAGE 3491843), in vitro translated, biotin-labelled (other, human, UniProt Q9Y297 1-605, looked up)
chain: MDPAEAVLQEKALKFMCSMPRSLWLGCSSLADSMPSLRCLYNPGTGALTAFQNSSEREDCNNGEPPRKIIPEKNSLRQTYNSCARLCLNQETVCLASTAMKTENCVAKTKLANGTSSMIVPKQRKLSASYEKEKELCVKYFEQWSESDQVEFVEHLISQMCHYQHGHINSYLKPMLQRDFITALPARGLDHIAENILSYLDAKSLCAAELVCKEWYRVTSDGMLWKKLIERMVRTDSLWRGLAERRGWGQYLFKNKPPDGNAPPNSFYRALYPKIIQDIETIESNWRCGRHSLQRIHCRSETSKGVYCLQYDDQKIVSGLRDNTIKIWDKNTLECKRILTGHTGSVLCLQYDERVIITGSSDSTVRVWDVNTGEMLNTLIHHCEAVLHLRFNNGMMVTCSKDRSIAVWDMASPTDITLRRVLVGHRAAVNVVDFDDKYIVSASGDRTIKVWNTSTCEFVRTLNGHKRGIACLQYRDRLVVSGSSDNTIRLWDIECGACLRVLEGHEELVRCIRFDNKRIVSGAYDGKIKVWDLVAALDPRAPAGTLCLRTLVEHSGRVFRLQFDEFQIVSSSHDDTILIWDFLNDPAAQAEPPRSPSRTYTYISR
modifications: biotin on some lysine residues (incorporated at random from biotin-Lys-tRNA)
notes: Product of a coupled transcription/translation reaction, used without purification; the text speaks of the genes in the human genome and of full-length cDNAs; also called βTRCP [c]; bTRCP1
B2: IkBa phosphopeptide (IkBa-24pp), LKKERLLDDRHD(p)SGLD(p)SMKDEEYC (peptide)
peptide: LKKERLLDDRHD[pS]GLD[pS]MKDEEYC
modifications: not fully specified (residue 24); also: C-terminal Cys coupled to maleimide-activated BSA
notes: Chemically synthesized; the peptide-BSA conjugate was deposited on the electrode; also called IkBa peptide; IkBa-24ppC
B3: Shc1 (EST clone IMAGE 3907115), in vitro translated, biotin-labelled (other, UniProt P29353-2 1-473, looked up)
chain: MNKLSGGGGRRTRVEGGQLGGEEWTRHGSFVNKPTRGWLHPNDKVMGPGVSYLVRYMGCVEVLQSMRALDFNTRTQVTREAISLVCEAVPGAKGATRRRKPCSRPLSSILGRSNLKFAGMPITLTVSTSSLNLMAADCKQIIANHHMQSISFASGGDPDTAEYVAYVAKDPVNQRACHILECPEGLAQDVISTIGQAFELRFKQYLRNPPKLVTPHDRMAGFDGSAWDEEEEEPPDHQYYNDFPGKEPPLGGVVDMRLREGAAPGAARPTAPNAQTPSHLGATLPVGQPVGGDPEVRKQMPPPPPCPGRELFDDPSYVNVQNLDKARQAVGGAGPPNPAINGSAPRDLFDMKPFEDALRVPPPPQSVSMAEQLRGEPWFHGKLSRREAEALLQLNGDFLVRESTTTPGQYVLTGLQSGQPKHLLLVDPEGVVRTKDHRFESVSHLISYHMDNHLPIISAGSELCLQQPVERKL
modifications: biotin on some lysine residues (incorporated at random from biotin-Lys-tRNA)
B4: βTRCP2 (EST clone IMAGE 4237375), in vitro translated, biotin-labelled (other, human, UniProt Q9UKB1 1-542, looked up)
chain: MEPDSVIEDKTIELMCSVPRSLWLGCANLVESMCALSCLQSMPSVRCLQISNGTSSVIVSRKRPSEGNYQKEKDLCIKYFDQWSESDQVEFVEHLISRMCHYQHGHINSYLKPMLQRDFITALPEQGLDHIAENILSYLDARSLCAAELVCKEWQRVISEGMLWKKLIERMVRTDPLWKGLSERRGWDQYLFKNRPTDGPPNSFYRSLYPKIIQDIETIESNWRCGRHNLQRIQCRSENSKGVYCLQYDDEKIISGLRDNSIKIWDKTSLECLKVLTGHTGSVLCLQYDERVIVTGSSDSTVRVWDVNTGEVLNTLIHHNEAVLHLRFSNGLMVTCSKDRSIAVWDMASATDITLRRVLVGHRAAVNVVDFDDKYIVSASGDRTIKVWSTSTCEFVRTLNGHKRGIACLQYRDRLVVSGSSDNTIRLWDIECGACLRVLEGHEELVRCIRFDNKRIVSGAYDGKIKVWDLQAALDPRAPASTLCLRTLVEHSGRVFRLQFDEFQIISSSHDDTILIWDFLNVPPSAQNETRSPSRTYTYISR
modifications: biotin on some lysine residues (incorporated at random from biotin-Lys-tRNA)
notes: Product of a coupled transcription/translation reaction, used without purification; also called βTRCP [c]; bTRCP2
B5: Phospholipase C gamma 1 (PLCγ) (EST clone IMAGE 4419252), in vitro translated, biotin-labelled (enzyme, UniProt P19174 1-1290, looked up)
chain: MAGAASPCANGCGPGAPSDAEVLHLCRSLEVGTVMTLFYSKKSQRPERKTFQVKLETRQITWSRGADKIEGAIDIREIKEIRPGKTSRDFDRYQEDPAFRPDQSHCFVILYGMEFRLKTLSLQATSEDEVNMWIKGLTWLMEDTLQAPTPLQIERWLRKQFYSVDRNREDRISAKDLKNMLSQVNYRVPNMRFLRERLTDLEQRSGDITYGQFAQLYRSLMYSAQKTMDLPFLEASTLRAGERPELCRVSLPEFQQFLLDYQGELWAVDRLQVQEFMLSFLRDPLREIEEPYFFLDEFVTFLFSKENSVWNSQLDAVCPDTMNNPLSHYWISSSHNTYLTGDQFSSESSLEAYARCLRMGCRCIELDCWDGPDGMPVIYHGHTLTTKIKFSDVLHTIKEHAFVASEYPVILSIEDHCSIAQQRNMAQYFKKVLGDTLLTKPVEISADGLPSPNQLKRKILIKHKKLAEGSAYEEVPTSMMYSENDISNSIKNGILYLEDPVNHEWYPHYFVLTSSKIYYSEETSSDQGNEDEEEPKEVSSSTELHSNEKWFHGKLGAGRDGRHIAERLLTEYCIETGAPDGSFLVRESETFVGDYTLSFWRNGKVQHCRIHSRQDAGTPKFFLTDNLVFDSLYDLITHYQQVPLRCNEFEMRLSEPVPQTNAHESKEWYHASLTRAQAEHMLMRVPRDGAFLVRKRNEPNSYAISFRAEGKIKHCRVQQEGQTVMLGNSEFDSLVDLISYYEKHPLYRKMKLRYPINEEALEKIGTAEPDYGALYEGRNPGFYVEANPMPTFKCAVKALFDYKAQREDELTFIKSAIIQNVEKQEGGWWRGDYGGKKQLWFPSNYVEEMVNPVALEPEREHLDENSPLGDLLRGVLDVPACQIAIRPEGKNNRLFVFSISMASVAHWSLDVAADSQEELQDWVKKIREVAQTADARLTEGKIMERRKKIALELSELVVYCRPVPFDEEKIGTERACYRDMSSFPETKAEKYVNKAKGKKFLQYNRLQLSRIYPKGQRLDSSNYDPLPMWICGSQLVALNFQTPDKPMQMNQALFMTGRHCGYVLQPSTMRDEAFDPFDKSSLRGLEPCAISIEVLGARHLPKNGRGIVCPFVEIEVAGAEYDSTKQKTEFVVDNGLNPVWPAKPFHFQISNPEFAFLRFVVYEEDMFSDQNFLAQATFPVKGLKTGYRAVPLKNNYSEDLELASLLIKIDIFPAKENGDLSPFSGTSLRERGSDASGQLFHGRAREGSFESRYQQPFEDFRISQEHLADHFDSRERRAPRRTRVNGDNRL
modifications: biotin on some lysine residues (incorporated at random from biotin-Lys-tRNA)
notes: also called PLCg

Columns and labels:
[1] = molecular target: T1, EGFR-pY992 phosphopeptide, …; experiment: ECL 7-spot plate screen, peptide-BSA spot, biotinylated TnT protein, Ru-streptavidin; signal normalized in two steps
[2] = molecular target: T1, EGFR-pY992 phosphopeptide, …; experiment: ECL 4-spot multi-array binding assay: peptide-BSA spot, biotinylated TnT protein, Sulfo-TAG streptavidin
[3] = molecular target: B3; experiment: ECL plate binding assay, peptide-BSA on electrode
[4] = molecular target: B5; experiment: ECL plate binding assay, peptide-BSA on electrode
[5] = molecular target: T2, c-Myc phosphopeptide (Myc-p58Tp62S), …(p)TPPL(p)SPSRRSGL (phosphothreonine and phosphoserine in P(p)TPPL(p)S (residues 15 and 19 of the printed peptide)); experiment: ECL plate binding assay: peptide-BSA on electrode, biotinylated TnT protein, Sulfo-TAG streptavidin
T2 construct: Chemically synthesized; control peptide; also called c-Myc peptide
T2 sequence (peptide, as listed by the source): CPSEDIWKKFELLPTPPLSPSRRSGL
Method: (§1) Also included were three other non specific EST clones as controls (Incyte, Palo alto, Calif.). […] Proteins were transferred into wells of the peptide-coated and BSA-blocked IPR plates. Sulfo-TAG labeled streptavidin (50 to 100 ng/well) was added to each well as the detection agent. […] The ECL signals were measured using an imaging plate reader (IPR).

[6] = molecular target: B2; experiment: as above
Method: as §1

[7] = molecular target: B2; experiment: ECL 4-spot multi-array binding assay: peptide-BSA spot, biotinylated TnT protein, Sulfo-TAG streptavidin

Row | normalized ECL signal [1] | ECL signal [2] [ECL signal] | Average ECL signal [5] [ECL signal] | Average ECL signal [6] [ECL signal] | Binder | other results
1 | 1 | 54 | – | – | B1 | –
2 | – | – | – | – | B2 | binding result [3]: no binding; binding result [4]: no binding
3 | – | – | 341 | 368 | B3 | –
4 | 1 | 60 | – | – | B4 | –
5 | – | – | 316 | 341 | B5 | ECL signal [7]: 26 ECL signal
